# Test results taken from article PMC9482650, “Quantitative fragmentomics allow affinity mapping of interactomes” (Nature Communications, 2022).
# Assays:
# Assay in all cases: holdup assay
# Parameters in all cases: key: below the threshold = too weak to quantify, mostly under pKd 3.1 to 4
# MPP7, Q5T2T1 = biological target: T1, MPP7, Q5T2T1
# T1 sequence (Q5T2T1 134-230, limits assumed, looked up): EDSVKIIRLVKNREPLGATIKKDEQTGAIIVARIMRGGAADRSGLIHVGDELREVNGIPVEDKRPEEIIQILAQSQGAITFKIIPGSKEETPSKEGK
# FRMPD4, Q14CM0 = biological target: FRMPD4, Q14CM0
# Chain of FRMPD4, Q14CM0 (Q14CM0 67-160): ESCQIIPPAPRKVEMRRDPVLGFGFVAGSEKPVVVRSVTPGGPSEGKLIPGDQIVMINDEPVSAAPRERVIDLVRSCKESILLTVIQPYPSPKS
# RAPGEF6, Q8TEU7 = biological target: T2, RAPGEF6, Q8TEU7
# T2 sequence (Q8TEU7 525-625, limits assumed, looked up): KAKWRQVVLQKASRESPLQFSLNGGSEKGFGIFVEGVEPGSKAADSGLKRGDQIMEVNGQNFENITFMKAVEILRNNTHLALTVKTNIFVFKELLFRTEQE
# LRRC7, Q96NW7 = biological target: T3, LRRC7, Q96NW7
# T3 sequence (Q96NW7 1440-1537, limits assumed, looked up): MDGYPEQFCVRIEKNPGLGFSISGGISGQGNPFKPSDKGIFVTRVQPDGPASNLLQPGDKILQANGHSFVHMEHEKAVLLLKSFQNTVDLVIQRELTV
# MAGI2_3, Q86UL8 = biological target: MAGI2_3, Q86UL8
# Chain of MAGI2_3, Q86UL8 (Q86UL8 600-682): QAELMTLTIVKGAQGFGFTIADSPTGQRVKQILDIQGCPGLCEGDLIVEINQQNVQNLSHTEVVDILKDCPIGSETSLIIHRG
# IL16_1, Q14005 = biological target: IL16_1, Q14005
# Chain of IL16_1, Q14005 (Q14005 210-306): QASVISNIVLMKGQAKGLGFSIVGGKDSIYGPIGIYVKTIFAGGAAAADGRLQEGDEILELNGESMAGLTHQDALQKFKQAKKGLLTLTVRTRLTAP
# GRIP1_7, Q9Y3R0 = biological target: T4, GRIP1_7, Q9Y3R0
# T4 sequence (Q9Y3R0 999-1096, limits assumed, looked up): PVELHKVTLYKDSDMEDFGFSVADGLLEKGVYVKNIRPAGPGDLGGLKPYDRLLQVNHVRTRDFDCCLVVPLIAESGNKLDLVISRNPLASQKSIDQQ
# Inadl_2, Q8NI35 = biological target: Inadl_2, Q8NI35
# Chain of Inadl_2, Q8NI35 (Q8NI35 238-335): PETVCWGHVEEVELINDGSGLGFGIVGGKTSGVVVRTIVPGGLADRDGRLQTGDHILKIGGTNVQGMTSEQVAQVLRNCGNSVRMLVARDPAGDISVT
# MPDZ_5, O75970 = biological target: T5, MPDZ_5, O75970
# T5 sequence (O75970 695-796, limits assumed, looked up): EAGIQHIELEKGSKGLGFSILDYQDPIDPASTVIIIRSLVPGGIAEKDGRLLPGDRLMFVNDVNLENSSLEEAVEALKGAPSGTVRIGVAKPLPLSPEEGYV
# CASK, O14936 = biological target: CASK, O14936
# Chain of CASK, O14936 (O14936 487-570): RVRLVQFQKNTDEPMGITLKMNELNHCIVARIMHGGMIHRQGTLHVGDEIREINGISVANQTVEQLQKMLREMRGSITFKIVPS
# MAGI3_2, Q5TCQ9 = biological target: MAGI3_2, Q5TCQ9
# Chain of MAGI3_2, Q5TCQ9 (Q5TCQ9 398-503): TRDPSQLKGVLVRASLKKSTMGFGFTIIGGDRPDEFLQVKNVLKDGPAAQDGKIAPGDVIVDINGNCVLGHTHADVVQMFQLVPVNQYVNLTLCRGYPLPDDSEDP
# HTRA2, O43464 = biological target: HTRA2, O43464
# Chain of HTRA2, O43464 (O43464 355-458): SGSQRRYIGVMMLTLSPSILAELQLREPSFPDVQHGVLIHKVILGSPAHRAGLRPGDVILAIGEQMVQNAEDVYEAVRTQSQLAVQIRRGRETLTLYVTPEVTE
# MAGI2_5, Q86UL8 = biological target: MAGI2_5, Q86UL8
# Chain of MAGI2_5, Q86UL8 (Q86UL8 915-1017): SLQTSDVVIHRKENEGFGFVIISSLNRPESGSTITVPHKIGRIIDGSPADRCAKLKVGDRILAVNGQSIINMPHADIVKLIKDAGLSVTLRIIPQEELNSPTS
# GRIP1_2, Q9Y3R0 = biological target: T6, GRIP1_2, Q9Y3R0
# T6 sequence (Q9Y3R0 145-248, limits assumed, looked up): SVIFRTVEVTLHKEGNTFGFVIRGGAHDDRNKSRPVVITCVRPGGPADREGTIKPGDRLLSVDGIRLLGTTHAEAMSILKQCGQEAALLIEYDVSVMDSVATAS
# LDB3, O75112 = biological target: LDB3, O75112
# Chain of LDB3, O75112 (O75112 1-94): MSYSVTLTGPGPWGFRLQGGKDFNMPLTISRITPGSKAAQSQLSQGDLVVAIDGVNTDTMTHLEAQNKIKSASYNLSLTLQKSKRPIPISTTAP
# DLG4_3, P78352 = biological target: DLG4_3, P78352
# Chain of DLG4_3, P78352 (P78352 306-403): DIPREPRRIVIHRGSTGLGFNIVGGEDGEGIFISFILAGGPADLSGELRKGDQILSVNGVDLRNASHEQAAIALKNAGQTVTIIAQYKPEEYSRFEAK
# GIPC2, Q8TF65 = biological target: GIPC2, Q8TF65
# Chain of GIPC2, Q8TF65 (Q8TF65 112-203): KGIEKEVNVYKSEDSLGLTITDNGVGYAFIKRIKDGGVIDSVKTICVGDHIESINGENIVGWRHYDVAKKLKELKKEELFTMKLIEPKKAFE
# PDZRN4_1, Q6ZMN7 = biological target: PDZRN4_1, Q6ZMN7
# Chain of PDZRN4_1, Q6ZMN7 (Q6ZMN7 213-318): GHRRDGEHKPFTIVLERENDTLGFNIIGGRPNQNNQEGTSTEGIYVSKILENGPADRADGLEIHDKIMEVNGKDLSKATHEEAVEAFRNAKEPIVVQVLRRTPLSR
# RADIL, Q96JH8 = biological target: T7, RADIL, Q96JH8
# T7 sequence (Q96JH8 971-1071, limits assumed, looked up): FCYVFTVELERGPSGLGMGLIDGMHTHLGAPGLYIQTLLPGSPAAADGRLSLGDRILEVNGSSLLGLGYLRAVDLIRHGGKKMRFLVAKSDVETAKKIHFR
# MAST1, Q9Y2H9 = biological target: MAST1, Q9Y2H9
# Chain of MAST1, Q9Y2H9 (Q9Y2H9 962-1065): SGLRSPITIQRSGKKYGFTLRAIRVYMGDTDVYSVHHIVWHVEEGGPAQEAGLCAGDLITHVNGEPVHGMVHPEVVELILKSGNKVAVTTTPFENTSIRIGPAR
# MPDZ_10, O75970 = biological target: T8, MPDZ_10, O75970
# T8 sequence (O75970 1624-1722, limits assumed, looked up): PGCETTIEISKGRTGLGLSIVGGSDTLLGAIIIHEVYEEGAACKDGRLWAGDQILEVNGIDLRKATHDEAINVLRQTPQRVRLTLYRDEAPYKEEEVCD
# DFNB31_2, Q9P202 = biological target: T9, DFNB31_2, Q9P202
# T9 sequence (Q9P202 274-371, limits assumed, looked up): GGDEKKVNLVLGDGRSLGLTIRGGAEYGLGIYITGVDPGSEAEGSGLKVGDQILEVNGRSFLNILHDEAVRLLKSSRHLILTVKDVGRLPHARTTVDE
# MPP6, Q9NZW5 = biological target: T10, MPP6, Q9NZW5
# T10 sequence (Q9NZW5 125-219, limits assumed, looked up): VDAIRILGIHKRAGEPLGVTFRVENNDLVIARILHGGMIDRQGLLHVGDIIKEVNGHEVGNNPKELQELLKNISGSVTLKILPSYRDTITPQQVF
# Inadl_4, Q8NI35 = biological target: Inadl_4, Q8NI35
# Chain of Inadl_4, Q8NI35 (Q8NI35 547-651): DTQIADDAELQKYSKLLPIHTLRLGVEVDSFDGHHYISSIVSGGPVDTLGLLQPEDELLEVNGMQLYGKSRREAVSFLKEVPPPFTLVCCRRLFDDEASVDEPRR
# PTPN3, P26045 = biological target: PTPN3, P26045
# Chain of PTPN3, P26045 (P26045 505-587): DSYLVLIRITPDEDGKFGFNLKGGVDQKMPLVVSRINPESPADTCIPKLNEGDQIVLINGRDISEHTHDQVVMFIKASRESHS
# GRIP2_6, Q9C0E4 = biological target: GRIP2_6, Q9C0E4
# Chain of GRIP2_6, Q9C0E4 (Q9C0E4 648-740): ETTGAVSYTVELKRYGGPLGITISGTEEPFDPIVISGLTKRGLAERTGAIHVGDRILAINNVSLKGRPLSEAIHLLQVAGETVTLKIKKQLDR
# FRMPD2_3, Q68DX3 = biological target: FRMPD2_3, Q68DX3
# Chain of FRMPD2_3, Q68DX3 (Q68DX3 1073-1166): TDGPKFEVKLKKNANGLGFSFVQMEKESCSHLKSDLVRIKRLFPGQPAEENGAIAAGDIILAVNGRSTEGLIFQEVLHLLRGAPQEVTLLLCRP
# NHERF4_1, Q86UT5-2 = biological target: NHERF4_1, Q86UT5-2
# Chain of NHERF4_1, Q86UT5-2 (Q86UT5 other isoform, or with tags, fused parts or gaps): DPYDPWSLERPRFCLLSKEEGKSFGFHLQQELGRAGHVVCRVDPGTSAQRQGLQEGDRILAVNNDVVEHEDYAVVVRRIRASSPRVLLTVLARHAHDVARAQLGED
# [1] = plain residues with an end cap or a label only (N-terminal biotin on a linker: ado-ado)
# [2] = modified: phospho on T at position -2 from the C-terminal residue
binder,measurement,setting,value
"DYSNLRETDI [ADRA1D, P25100]",pKd,"MPP7, Q5T2T1; [1]",below the threshold
same,pKd,"FRMPD4, Q14CM0; [1]",below the threshold
same,pKd,"RAPGEF6, Q8TEU7; [1]",below the threshold
same,pKd,"LRRC7, Q96NW7; [1]",3.48
same,pKd,"MAGI2_3, Q86UL8; [1]",below the threshold
same,pKd,"IL16_1, Q14005; [1]",3.59
same,pKd,"GRIP1_7, Q9Y3R0; [1]",below the threshold
same,pKd,"Inadl_2, Q8NI35; [1]",below the threshold
same,pKd,"MPDZ_5, O75970; [1]",below the threshold
same,pKd,"CASK, O14936; [1]",below the threshold
same,pKd,"MAGI3_2, Q5TCQ9; [1]",below the threshold
same,pKd,"HTRA2, O43464; [1]",below the threshold
same,pKd,"MAGI2_5, Q86UL8; [1]",below the threshold
same,pKd,"GRIP1_2, Q9Y3R0; [1]",below the threshold
same,pKd,"LDB3, O75112; [1]",below the threshold
same,pKd,"DLG4_3, P78352; [1]",below the threshold
same,pKd,"GIPC2, Q8TF65; [1]",3.8
same,pKd,"PDZRN4_1, Q6ZMN7; [1]",below the threshold
same,pKd,"RADIL, Q96JH8; [1]",below the threshold
same,pKd,"MAST1, Q9Y2H9; [1]",4.34
same,pKd,"MPDZ_10, O75970; [1]",below the threshold
same,pKd,"DFNB31_2, Q9P202; [1]",below the threshold
same,pKd,"MPP6, Q9NZW5; [1]",3.63
same,pKd,"Inadl_4, Q8NI35; [1]",below the threshold
same,pKd,"PTPN3, P26045; [1]",4.57
same,pKd,"GRIP2_6, Q9C0E4; [1]",below the threshold
same,pKd,"FRMPD2_3, Q68DX3; [1]",below the threshold
same,pKd,"NHERF4_1, Q86UT5-2; [1]",below the threshold
"SAGADSETHC [SLCO1B1, Q9Y6L6]",pKd,"MPP7, Q5T2T1; [1]",below the threshold
same,pKd,"FRMPD4, Q14CM0; [1]",below the threshold
same,pKd,"RAPGEF6, Q8TEU7; [1]",below the threshold
same,pKd,"LRRC7, Q96NW7; [1]",below the threshold
same,pKd,"MAGI2_3, Q86UL8; [1]",below the threshold
same,pKd,"IL16_1, Q14005; [1]",below the threshold
same,pKd,"GRIP1_7, Q9Y3R0; [1]",below the threshold
same,pKd,"Inadl_2, Q8NI35; [1]",below the threshold
same,pKd,"MPDZ_5, O75970; [1]",below the threshold
same,pKd,"CASK, O14936; [1]",below the threshold
same,pKd,"MAGI3_2, Q5TCQ9; [1]",below the threshold
same,pKd,"HTRA2, O43464; [1]",below the threshold
same,pKd,"MAGI2_5, Q86UL8; [1]",below the threshold
same,pKd,"GRIP1_2, Q9Y3R0; [1]",below the threshold
same,pKd,"LDB3, O75112; [1]",below the threshold
same,pKd,"DLG4_3, P78352; [1]",below the threshold
same,pKd,"GIPC2, Q8TF65; [1]",3.71
same,pKd,"PDZRN4_1, Q6ZMN7; [1]",below the threshold
same,pKd,"RADIL, Q96JH8; [1]",below the threshold
same,pKd,"MAST1, Q9Y2H9; [1]",3.9
same,pKd,"MPDZ_10, O75970; [1]",below the threshold
same,pKd,"DFNB31_2, Q9P202; [1]",below the threshold
same,pKd,"MPP6, Q9NZW5; [1]",3.58
same,pKd,"Inadl_4, Q8NI35; [1]",below the threshold
same,pKd,"PTPN3, P26045; [1]",4.01
same,pKd,"GRIP2_6, Q9C0E4; [1]",below the threshold
same,pKd,"FRMPD2_3, Q68DX3; [1]",below the threshold
same,pKd,"NHERF4_1, Q86UT5-2; [1]",below the threshold
"SRSRRRETAL [HPV33-E6_-2P, P06427]",pKd,"MPP7, Q5T2T1; [2]",below the threshold
same,pKd,"FRMPD4, Q14CM0; [2]",3.73
same,pKd,"RAPGEF6, Q8TEU7; [2]",below the threshold
same,pKd,"LRRC7, Q96NW7; [2]",below the threshold
same,pKd,"MAGI2_3, Q86UL8; [2]",below the threshold
same,pKd,"IL16_1, Q14005; [2]",below the threshold
same,pKd,"GRIP1_7, Q9Y3R0; [2]",below the threshold
same,pKd,"Inadl_2, Q8NI35; [2]",below the threshold
same,pKd,"MPDZ_5, O75970; [2]",below the threshold
same,pKd,"CASK, O14936; [2]",below the threshold
same,pKd,"MAGI3_2, Q5TCQ9; [2]",below the threshold
same,pKd,"HTRA2, O43464; [2]",below the threshold
same,pKd,"MAGI2_5, Q86UL8; [2]",below the threshold
same,pKd,"GRIP1_2, Q9Y3R0; [2]",below the threshold
same,pKd,"LDB3, O75112; [2]",below the threshold
same,pKd,"DLG4_3, P78352; [2]",below the threshold
same,pKd,"GIPC2, Q8TF65; [2]",below the threshold
same,pKd,"PDZRN4_1, Q6ZMN7; [2]",below the threshold
same,pKd,"RADIL, Q96JH8; [2]",below the threshold
same,pKd,"MAST1, Q9Y2H9; [2]",below the threshold
same,pKd,"MPDZ_10, O75970; [2]",below the threshold
same,pKd,"DFNB31_2, Q9P202; [2]",below the threshold
same,pKd,"MPP6, Q9NZW5; [2]",3.68
same,pKd,"Inadl_4, Q8NI35; [2]",below the threshold
same,pKd,"PTPN3, P26045; [2]",4.02
same,pKd,"GRIP2_6, Q9C0E4; [2]",below the threshold
same,pKd,"FRMPD2_3, Q68DX3; [2]",below the threshold
same,pKd,"NHERF4_1, Q86UT5-2; [2]",4.6
